Experimental data reported in US9012420B2, “Aptamer for chymase, and use thereof” (Ribomic Inc., priority 2009, dated 2015).
Oligonucleotides are written 5' to 3', each unit as a sugar letter and its base; * is a phosphorothioate linkage, no mark a phosphodiester; rarer units and linkages stand in square brackets, end groups in braces. Plain capitals give the bases only. r = 2'-OH (RNA); f = 2'-fluoro

T1: chymase (Homo sapiens, UniProt P23946 P23946:22-247)
T1 sequence: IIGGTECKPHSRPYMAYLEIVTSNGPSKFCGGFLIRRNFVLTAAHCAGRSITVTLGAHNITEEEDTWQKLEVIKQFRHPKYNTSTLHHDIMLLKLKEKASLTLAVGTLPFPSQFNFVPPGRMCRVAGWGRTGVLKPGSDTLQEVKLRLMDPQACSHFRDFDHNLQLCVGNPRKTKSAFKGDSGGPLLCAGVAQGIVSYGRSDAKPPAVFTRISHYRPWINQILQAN

T2: chymase (recombinant, manufactured by SIGMA) (Homo sapiens, UniProt P23946)
T2 construct: purchased SIGMA; host or cells: yeast
T2 sequence (P23946 22-247): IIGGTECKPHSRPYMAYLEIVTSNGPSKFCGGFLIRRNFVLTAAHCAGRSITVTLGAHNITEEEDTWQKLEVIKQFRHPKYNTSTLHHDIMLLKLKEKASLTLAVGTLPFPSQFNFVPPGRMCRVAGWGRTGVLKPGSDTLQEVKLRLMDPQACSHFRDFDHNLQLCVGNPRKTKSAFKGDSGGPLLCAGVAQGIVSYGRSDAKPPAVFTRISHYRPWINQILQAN

T3: chymase (Homo sapiens, UniProt P23946)
T3 sequence (P23946 22-247): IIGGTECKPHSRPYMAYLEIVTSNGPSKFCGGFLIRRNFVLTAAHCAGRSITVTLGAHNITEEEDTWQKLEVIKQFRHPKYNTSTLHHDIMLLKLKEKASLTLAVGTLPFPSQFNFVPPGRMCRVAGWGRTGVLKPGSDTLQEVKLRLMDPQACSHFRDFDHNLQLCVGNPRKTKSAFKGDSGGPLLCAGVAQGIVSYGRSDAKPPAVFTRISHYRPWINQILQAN


Tests used:
[1] = molecular target: T1, chymase; experiment: inhibition; Suc-AAPF-MCA, 37 C, solution C; conditions: tags: recombinant, expressed in yeast, SIGMA
Procedure: Here, Suc is a protecting succinyl group, and MCA is a 4-methylcoumaryl-7-amide group; upon cleavage of the C-terminal side of phenylalanine, AMC (7-amino-4-methyl-coumarine) is released. By detecting the fluorescence of this AMC, the enzyme activity of chymase can be determined. The assay was performed using a 96-well plate (F16 Black Maxisorp Fluoronunc, manufactured by Nunc), with a reaction mixture volume of 100 μL, in solution C as a buffer solution. First, each nucleic acid was serially diluted to 0.0027-2 μM concentrations in solution C to obtain 50 μL solutions. After 10 μL of the 1 mM substrate prepared in solution C was added thereto, the plate was set to the microplate reader SpectraMax190 (manufactured by Molecular Devices Corporation), and incubated at 37° C. for 5 minutes. Separately, 0.05 μg (or 0.005 μg) of chymase (recombinant, manufactured by SIGMA) was diluted in solution C to obtain a 40 μL chymase solution, and incubated at 37° C. for 5 minutes. The chymase solution was added to the mixture of the nucleic acid and substrate to initiate an enzyme reaction. The final chymase concentration in the reaction mixture was 16.7 nM (or 1.67 nM), the final substrate concentration being 100 μM. The plate containing the reaction mixture was set to the microplate reader SpectraMax190 (manufactured by Molecular Devices Corporation), and examined for time-dependent changes in the fluorescence intensity at 37° C. for 5 minutes (or 30 minutes) (excitation wavelength 380 nm, detection wavelength 460 nm). A linear approximation of the increase in the fluorescence of the AMC released from the substrate by chymase activity was generated, and its slope was taken as the initial velocity […]. For control, samples were treated and analyzed in the same manner in two cases: use of a 30N or 40N (a nucleotide of 30 or 40 consecutive bases represented by N; N is A, G, C or T) nucleic acid pool (negative control), and use of chymostatin, a known chymotrypsin-like serine protease inhibitor (positive control). Taking the initial reaction velocity without the nucleic acid and inhibitor (V_0) as a 100% enzyme activity, the inhibitory rate of each test substance was calculated using the following equation: […]
The chymase inhibitory activity was measured in the same manner as in Example 3.

[2] = molecular target: T2, chymase (recombinant, manufactured by SIGMA); experiment: Chymase inhibitory activity using synthetic substrate Suc-Ala-Ala-Pro-Phe-MCA; assay type: biochemical; conditions: Table 3; substrate 100 μM, solution C, 37° C.; mean value for 2 to 3 measurements
Procedure: A first method employs a synthetic substrate. A useful chymase substrate is Suc-Ala-Ala-Pro-Phe-MCA (4-methylcoumaryl-7-amide group) (manufactured by Peptide Institute, Inc.), which contains the 4-amino acid peptide “Ala-Ala-Pro-Phe”, a standard substrate for chymotrypsin-like proteases.
The assay is performed using a 96-well plate (F16 Black Maxisorp Fluoronunc, manufactured by Nunc), with a reaction mixture volume of 100 μL, in a buffer solution (solution C; see Example 2 below). First, each nucleic acid is prepared in solution C to obtain 50 μL solutions. After 10 μL of the 1 mM substrate prepared in solution C is added, the plate is set to the microplate reader SpectraMax190 (manufactured by Molecular Devices Corporation), and incubated at 37° C. for 5 minutes. Separately, 0.05 μg of chymase (recombinant, manufactured by SIGMA) is diluted in solution C, and 40 μL of this dilution is incubated at 37° C. for 5 minutes. The chymase solution is added to the mixture of the nucleic acid and substrate to initiate an enzyme reaction. The plate containing the reaction mixture is set to the microplate reader SpectraMax190 (manufactured by Molecular Devices Corporation), and examined for time-dependent changes in the fluorescence intensity at 37° C. for 5 minutes (excitation wavelength 380 nm, detection wavelength 460 nm). A linear approximation of the increase in the fluorescence of the AMC (7-amino-4-methylcoumarine) released from the substrate by chymase activity is generated, and its slope is taken as the initial reaction velocity. For control, samples are treated and analyzed in the same manner in two cases: use of a nucleic acid pool containing a random sequence of 30 or 40 nucleotides (negative control), and use of chymostatin, a known chymotrypsin-like serine protease inhibitor (positive control). Taking the initial reaction velocity without the nucleic acid and inhibitor as a 100% enzyme activity, the inhibitory rate for each test substance is calculated, and the inhibitor concentration required to cause a 50% inhibition of the enzyme activity (IC50) is determined.
Whether the nucleic acids shown by SEQ ID NO: 4-20, 22-34, and 38-48 inhibit the enzyme activity of chymase was determined as described below. The chymase substrate used was Suc-Ala-Ala-Pro-Phe-MCA (manufactured by Peptide Institute, Inc.), which contains the 4-amino-acid peptide Ala-Ala-Pro-Phe, a standard substrate for chymotrypsin-like proteases. Here, Suc is a protecting succinyl group, and MCA is a 4-methylcoumaryl-7-amide group; upon cleavage of the C-terminal side of phenylalanine, AMC (7-amino-4-methylcoumarine) is released. By detecting the fluorescence of this AMC, the enzyme activity of chymase can be determined. The assay was performed using a 96-well plate (F16 Black Maxisorp Fluoronunc, manufactured by Nunc), with a reaction mixture volume of 100 μL, in solution C as a buffer solution. First, each nucleic acid was serially diluted to 0.0027-2 μM concentrations in solution C to obtain 50 μL solutions. After 10 μL of the 1 mM substrate prepared in solution C was added thereto, the plate was set to the microplate reader SpectraMax190 (manufactured by Molecular Devices Corporation), and incubated at 37° C. for 5 minutes. Separately, 0.05 μg (or 0.005 μg) of chymase (recombinant, manufactured by SIGMA) was diluted in solution C to obtain a 40 μL chymase solution, and incubated at 37° C. for 5 minutes. The chymase solution was added to the mixture of the nucleic acid and substrate to initiate an enzyme reaction. The final chymase concentration in the reaction mixture was 16.7 nM (or 1.67 nM), the final substrate concentration being 100 μM. The plate containing the reaction mixture was set to the microplate reader SpectraMax190 (manufactured by Molecular Devices Corporation), and examined for time-dependent changes in the fluorescence intensity at 37° C. for 5 minutes (or 30 minutes) (excitation wavelength 380 nm, detection wavelength 460 nm). […]

[3] = molecular target: T3, chymase; experiment: Surface plasmon resonance (Biacore T100), aptamer immobilized on SA chip, chymase injected as analyte; assay type: binding; set-up: key: ++: a sequence that binds to chymase significantly more strongly than the negative control 40N; +: a sequence that binds to chymase equivalently compared with the negative control 40N; conditions: Table 1; about 1000 RU nucleic acid immobilized, chymase 0.2 μM analyte, running buffer solution A; compared with 40N
Procedure: Binding strength is measured using Biacore T100 (manufactured by GE Healthcare). In a method of measurement, the aptamer is first immobilized onto a sensor chip, the amount immobilized being about 1000 RU. 20 μL of a chymase solution for analyte, prepared at 0.2 μM, is injected, and the binding of chymase to the aptamer is detected. An RNA comprising a random nucleotide sequence of 30 or 40 nucleotides is used as a negative control.
The binding activities against chymase of the nucleic acids shown by SEQ ID NO: 4-20 and 22-34 were determined by the surface plasmon resonance method using Biacore T100 (manufactured by GE Healthcare). The sensor chip used was the SA chip, which had streptavidin immobilized thereon. Bound thereto was about 1500 RU of a 16-nucleotide Poly dT with biotin bound to the 5′ end thereof. […] 20 μL of chymase for analyte, prepared at 0.2 μM, was injected. Solution A was used as a running buffer.
The binding activities against chymase of the nucleic acids shown by SEQ ID NO: 38-48 were evaluated by the surface plasmon resonance method. In the evaluations for SEQ ID NO: 38-48, measurements were taken in the same manner as Example 1. Solution C was used as a running buffer.

Molecule	IC50 [1]	IC50 [2]	Binding activity as determined using Biacore [3]
GGGTTAGAUAGAGTUAAAAACCC (mixed, 2'-F U; 2'-OMe 1-3,7,8,10,13,17-20; DNA T4,T5,T14,A16,C21-C23; 5' and 3' idT) [72(4)]	65 nM	–	–
GGGUUAGAUAGAGUUAAAAACCC (mixed, 2'-F U and C; 2'-OMe 1-3,10,13,16-20; DNA G7,A8; 5' and 3' idT) [56(52)]	52 nM	–	–
GGGUUAGAUAGAGUUAAAAACCC (ssRNA, 2'-F U and C; 2'-OMe 2,3,7,8,10,13,16-20; 5' PEG 40 kDa; 3' idT) [56(39)]	86 nM	–	–
GGGUUAGAUAGAGUUAAAAACCC (ssRNA, 2'-F U and C; 2'-OMe 2,3,7,8,10,13,16-20; PS 6-7; 5' and 3' idT) [56(41)]	53 nM	–	–
15 (nucleic acid, aptamer) rGrGrGrAfCrGrGfUrArGrGrArAfUfUfCfCfCrArGrArArArAfUrArArAfUfUfCfCrGrArArGrArArArAfCrArAfCrArAfUfUfUfUfUrGfCrArArAfCrAfUrArGrArArGrArGfCrGrGfCfCrGfC	–	285 ± 21 nM	++
GGGUUAGAUAGAGUUAAAAACCC (ssRNA, 2'-F U and C; 2'-OMe 2,3,7,8,10,13,16-20; 5' and 3' idT) [56(40)]	51 nM	–	–
GGGUUAGAUAGAGUUAAAAACCC (ssRNA, 2'-F U and C; 2'-OMe 1-3,7,8,10,16,17,19,20) [56(20)]	102 nM	–	–
GGGUUAGAUAGAGUUAAAAACCC (ssRNA, 2'-F U and C; 2'-OMe 1-3,19,20; 5' and 3' idT) [56(24)]	38 nM	–	–
9 (nucleic acid) rGrGrGrAfCrGrGfUrArGrGrArAfUfUfCfCfCrGrArArArArGfCrArAfCrArArGfCfUfUrGfCfUrArArArAfUrGrAfUfUfCfCrGrArArArArArAfCrAfCrAfUrArGrArArGrArGfCrGrGfCfCrGfC	–	273 ± 69 nM	++
11 (nucleic acid, aptamer) rGrGrGrAfCrGrGfUrArGrGrArAfUfUfCfCfCrGrAfCrAfCrGrArArAfUrGfUrGfUrGrAfUfUrArAfUfUfCfCrGrArAfCrArAfCrArArArGfUrArAfCrAfUrArGrArArGrArGfCrGrGfCfCrGfC	–	145 ± 36 nM	++
GGGUUAGAUAGAGUUAAAAACCC (ssRNA, 2'-F U and C; 2'-OMe 1-3,10,13,16-20; PS 6-7,7-8; 5' and 3' idT) [56(37)]	46 nM	–	–
GGGTTAGAUAGAGTUAAAAACCC (mixed, 2'-F U; 2'-OMe 1-3,7,8,10,16-20; DNA T4,T5,G13,T14,C21-C23; 5' and 3' idT) [72(3)]	50 nM	–	–
GGGUUAGAUAGAGUUAAAAACCC (ssRNA, 2'-F U and C; 2'-OMe 1-3,10,13,16-20; PS 7-8; 5' and 3' idT) [56(36)]	97 nM	–	–
GGGUUAGAUAGAGUUAAAAACCC (mixed, 2'-F U and C; 2'-OMe 1-3,7,10,13,16-20; DNA A6; 5' and 3' idT) [56(49)]	69 nM	–	–
12 (nucleic acid, aptamer) rGrGrGrAfCrGrGfUrArGrGrArAfUfUfCrGfCfCrGfUfCrArAfCrGfUfUrAfCrAfUrArAfUrGfUrAfUrAfUrAfCfCrArGrGrGfUrArAfCfUrArArAfCrAfUrArGrArArGrArGfCrGrGfCfCrGfC	–	128 ± 23 nM	++
10 (nucleic acid, aptamer) rGrGrGrAfCrGrGfUrArGrGrArAfUfUfCfCrGfCfCrGfCfCfUrArArArArArAfCrGrAfCrGrAfUrAfUfUrAfCrArGrArArAfCrGfUfCrArArAfUrAfCrAfUrArGrArArGrArGfCrGrGfCfCrGfC	–	> 500 nM	++
8 (nucleic acid, aptamer) rGrGrGrAfCrGrGfUrArGrGrArAfUfUfCfUrAfCrGrGfUfCfUrGfUrGfUrGrArArAfUfUrGrArArAfCrAfCrAfCrArArArGrArAfCrArAfUrArArAfCrAfUrArGrArArGrArGfCrGrGfCfCrGfC	–	453 ± 463 nM	++
GGGUUAGAUAGAGUUAAAAACCC (ssRNA, 2'-F U and C; 2'-OMe 7,8,10; 5' and 3' idT) [56(25)]	70 nM	–	–
